Laboratory results: patent US20100081620A1 (BIOZYME, published 2010)
Read-outs that look alike come from different tables or passages of the source.

Key:
MMP 13 = biological target: T1, MMP 13; test: enzyme inhibition, fluorescent peptide substrate
T1 construct: also called matrix metalloproteinase 13
Method: (§1) Inhibition assays with TACE and ADAM 10. Activity of TACE catalytic/disintegrin, TACE catalytic, or ADAM10 catalytic/disintegrin constructs was monitored at 3 minute intervals using the fluorescent substrate, Dabcyl-LAQAHomoPheRSC(Fluorescein)-NH₂ (SEQ ID NO 17) with excitation 485 nm and emission 530 nm. The substrate was diluted from a 10 mM stock in DMSO to 10 μM in assay buffer containing 20 mM Tris, pH 8.0, and 0.0006% Brij-35. Reactions were run in a 96-well black-coated plate with either ADAM10 prodomain (10 nM-1.0 μM) alone or with enzyme. Concentrations of enzyme ranged from 0.5-2.0 nM for TACE and 5-15 nM for ADAM10. For assays with TACE and ADAM8 prodomain, the range of concentrations varied from 1-4.7 μM.
(§2) Inhibition assays with MMPs. The fluorescent substrate Dabcyl-[…](Fluorescein)-NH₂ (SEQ ID NO 18) (10 μM) in assay buffer containing 50 mM Tris, pH 7.5, 150 mM NaCl, 2 mM CaCl₂, 5 μM ZnSO₄, and 0.01% Brij-35 was used to monitor enzyme activities. MMPs 1, 2, 3, 9, 13, and 14 (0.1-20 nM) were incubated with substrate in the absence or presence of prodomain (3-30 μM). Fluorescence intensities were measured every 3-5 minutes at an emission wavelength of 530 nm (excitation 485 nm).
(§3) Inhibition assays with ADAM 9. The fluorescent substrate, Dabcyl-PchaGC(Me)HAK(Fam)-NH₂ (SEQ ID NO 19) (10 μM), in a buffer containing 25 mM Tris, pH 8.0, 0.0006% Brij-35, was used to measure human ADAM 9 catalytic/disintegrin domains activity. The ADAM 9 was provided as a 0.1 μg/μl stock solution, from which 3 μl was added to start the reaction in the absence or presence of ADAM10 prodomain (78-5000 nM). Fluorescence intensities were measured every 10-20 minutes at excitation and emission wavelengths of 485 and 530 nm respectively.

MMP 2 = biological target: T2, MMP 2; test: enzyme inhibition, fluorescent peptide substrate
T2 construct: also called matrix metalloproteinase 2
Method: as §1, §2, §3

MMP 3 = biological target: T3, MMP 3; test: enzyme inhibition, fluorescent peptide substrate
T3 construct: also called matrix metalloproteinase 3
Method: as §1, §2, §3

[1] = biological target: T4, Human TACE protease containing the catalytic/disintegrin domains (human, UniProt P78536 215-671, limits assumed); test: enzyme inhibition, fluorescent peptide substrate
T4 construct: domain: catalytic/disintegrin domains; Bought; also called TACE (human) Cat/Dis; TACE catalytic/disintegrin
Method: as §1, §2, §3

MMP 1 = biological target: T5, MMP 1; test: enzyme inhibition, fluorescent peptide substrate
T5 construct: also called matrix metalloproteinase 1
Method: as §1, §2, §3

[2] = biological target: T6, Human ADAM10 protease containing the catalytic/disintegrin domains (human, UniProt O14672 214-672, limits assumed); test: enzyme inhibition, fluorescent peptide substrate
T6 construct: domain: catalytic/disintegrin domains; Bought; also called ADAM 10 (human) Cat/Dis; ADAM10 catalytic/disintegrin construct
T6 sequence (looked up): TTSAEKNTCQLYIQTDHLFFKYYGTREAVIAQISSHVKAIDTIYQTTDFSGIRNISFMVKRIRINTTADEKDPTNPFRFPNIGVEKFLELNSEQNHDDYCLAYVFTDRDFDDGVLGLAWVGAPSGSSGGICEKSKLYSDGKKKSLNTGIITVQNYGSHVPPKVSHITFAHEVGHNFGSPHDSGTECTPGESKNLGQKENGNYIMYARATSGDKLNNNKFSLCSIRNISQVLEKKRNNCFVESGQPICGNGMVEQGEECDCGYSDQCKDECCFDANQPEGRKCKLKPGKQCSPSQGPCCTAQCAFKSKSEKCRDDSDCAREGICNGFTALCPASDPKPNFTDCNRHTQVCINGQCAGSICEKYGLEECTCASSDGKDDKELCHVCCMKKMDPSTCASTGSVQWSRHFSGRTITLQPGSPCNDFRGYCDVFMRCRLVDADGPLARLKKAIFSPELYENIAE
Method: as §1, §2, §3

MMP 14 = biological target: T7, MMP 14; test: enzyme inhibition, fluorescent peptide substrate
T7 construct: also called matrix metalloproteinase 14
Method: as §1, §2, §3

MMP 9 = biological target: T8, MMP 9; test: enzyme inhibition, fluorescent peptide substrate
T8 construct: also called matrix metalloproteinase 9
Method: as §1, §2, §3

[3] = biological target: T9, TACE catalytic domain (human) (human, UniProt P78536 215-477, limits assumed); test: enzyme inhibition, fluorescent peptide substrate
T9 construct: domain: catalytic domain; also called TACE (human) Cat
Method: as §1, §2, §3

[4] = biological target: T10, ADAM 8 catalytic domain (mouse) (mouse, UniProt Q05910 196-395, limits assumed); test: enzyme inhibition, fluorescamine assay with Dnp peptide substrate
T10 construct: domain: catalytic domain; also called ADAM 8 (mouse); ADAM 8 (mouse) Cat
T10 sequence (looked up): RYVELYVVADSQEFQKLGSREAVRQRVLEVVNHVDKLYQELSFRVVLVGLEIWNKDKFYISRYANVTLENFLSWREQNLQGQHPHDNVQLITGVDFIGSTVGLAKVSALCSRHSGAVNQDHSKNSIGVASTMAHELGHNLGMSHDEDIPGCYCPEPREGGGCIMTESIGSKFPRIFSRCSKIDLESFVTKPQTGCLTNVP
Method: Inhibition assays with ADAM 8. The ADAM 8 catalytic domain was expressed and purified from E. coli as described (22). A substrate based on the L-selectin cleavage site, Dnp-INorIeu[…]-NH₂ (SEQ ID NO 20), was used to monitor enzyme activity with a fluorescamine assay. From a concentrated 50 mM solution in DMSO, the substrate was diluted 1:500 in 25 mM HEPES, pH 8.0, 0.0006% Brij-35. To 100 μl of diluted substrate was added either 5 μl of buffer (Tris, pH 8.0, 150 mM KCl) or 5 μl of ADAM10 prodomain (1-10 μM). Zero time points were taken by diluting 12.5 μl of the reaction mixture into 100 μl of fluorescamine buffer (50 mM HEPES, pH 8.0, 0.2 M NaCl, 0.01 M CaCl₂, 0.01% Brij-35) in a 96-well black-coated plate. Before measuring fluorescence, 3 μl of a 1% solution of fluorescamine in DMSO was added to each well. The plate was allowed to incubate for 10 min in the dark before measuring fluorescence (excitation wavelength at 390 nm, emission wavelength at 485 nm). For assays with TACE and ADAM8 prodomains, a fluorescent substrate was used to monitor activity at concentrations of prodomains ranging from 1-4.7 μM.
Calculation of inhibition constants. The amount of activity was calculated by subtracting the ADAM 10 prodomain control from the ADAM 10 prodomain with enzyme. […]

[5] = biological target: T6, Human ADAM10 protease containing the …; test: enzyme inhibition, fluorescent peptide substrate; fit to a pure competitive model
Method: ADAM 10 protein was diluted 1:100 in buffer 25 mM Tris pH 8, 0.0006% Brij-35 and then 10 μl was added to 88 μl of substrate (20-100 μM), Dabcyl-LAQAHomoPheRSC(Fluorescein)-NH₂ with excitation 485 nm and emission 530 nm. Prodomain, 2 μl, in 25 mM Tris, pH 8, 100 mM NaCl, 10% glycerol, 0.1% mercaptoethanol, and 50 μM CaCl₂ was added to substrate before addition of enzyme. The final concentration of prodomain ranged from 17-170 nM. The fluorescence vs time was plotted, and slopes were taken from straight line fits of initial velocities. The reciprocal of the velocities was plotted vs the reciprocal of substrate squared since the normal Lineweaver Burke plot gave curved lines. The initial velocities vs substrate concentrations were fit as a family of curves to several allosteric models. The data fit best to a pure competitive model as described in the following equation where binding of inhibitor prevents substrate from binding to both sites: […]

[6] = biological target: T11, human ADAM 9 catalytic/disintegrin domains (human, UniProt Q13443 206-697, limits assumed); test: enzyme inhibition, fluorescent peptide substrate
T11 construct: domain: catalytic/disintegrin domains; Bought; also called ADAM 9 (human)
T11 sequence (looked up): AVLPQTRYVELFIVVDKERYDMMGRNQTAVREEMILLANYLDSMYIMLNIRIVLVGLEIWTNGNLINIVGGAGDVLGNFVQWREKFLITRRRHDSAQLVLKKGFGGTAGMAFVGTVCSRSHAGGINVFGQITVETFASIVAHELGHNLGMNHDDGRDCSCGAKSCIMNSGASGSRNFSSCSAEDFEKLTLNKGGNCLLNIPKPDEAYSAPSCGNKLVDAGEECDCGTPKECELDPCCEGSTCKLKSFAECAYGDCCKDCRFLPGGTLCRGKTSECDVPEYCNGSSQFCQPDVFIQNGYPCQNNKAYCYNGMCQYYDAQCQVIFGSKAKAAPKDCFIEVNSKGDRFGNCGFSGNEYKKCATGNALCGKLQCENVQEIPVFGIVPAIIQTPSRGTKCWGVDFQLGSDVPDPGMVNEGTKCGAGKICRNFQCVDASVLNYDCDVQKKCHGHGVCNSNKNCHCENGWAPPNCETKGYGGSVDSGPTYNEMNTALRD
Method: as §1, §2, §3

[7] = biological target: T11, human ADAM 9 catalytic/disintegrin …; test: enzyme inhibition, fluorescent peptide substrate; remark: listed apart in the source
Method: as §3
Calculation of inhibition constants. The amount of activity was calculated by subtracting the ADAM 10 prodomain control from the ADAM 10 prodomain with enzyme. All inhibition assays were performed at room temperature and the data fit to the following equation using Sigma Plot software: […]

T9 sequence (P78536 215-477 limits assumed): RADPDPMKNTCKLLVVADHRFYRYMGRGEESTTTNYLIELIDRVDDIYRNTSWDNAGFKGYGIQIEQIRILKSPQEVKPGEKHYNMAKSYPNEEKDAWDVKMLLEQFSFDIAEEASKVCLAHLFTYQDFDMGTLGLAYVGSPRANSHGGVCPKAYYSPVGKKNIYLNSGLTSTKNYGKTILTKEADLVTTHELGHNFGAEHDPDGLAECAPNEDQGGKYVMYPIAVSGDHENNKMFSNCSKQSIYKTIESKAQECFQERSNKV
T4 sequence (P78536 215-671 limits assumed): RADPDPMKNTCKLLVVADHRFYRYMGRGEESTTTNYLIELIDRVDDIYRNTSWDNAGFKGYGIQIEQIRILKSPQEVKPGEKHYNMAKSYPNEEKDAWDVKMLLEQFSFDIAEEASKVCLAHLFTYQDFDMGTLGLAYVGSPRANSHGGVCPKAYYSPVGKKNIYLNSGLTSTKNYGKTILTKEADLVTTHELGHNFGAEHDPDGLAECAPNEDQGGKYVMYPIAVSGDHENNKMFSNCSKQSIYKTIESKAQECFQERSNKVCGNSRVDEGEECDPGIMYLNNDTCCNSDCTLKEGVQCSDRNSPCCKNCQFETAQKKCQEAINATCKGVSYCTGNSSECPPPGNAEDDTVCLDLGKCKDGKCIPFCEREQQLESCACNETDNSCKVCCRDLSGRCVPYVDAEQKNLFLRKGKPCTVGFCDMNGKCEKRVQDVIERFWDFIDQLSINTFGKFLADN
T3 sequence (P08254 100-477): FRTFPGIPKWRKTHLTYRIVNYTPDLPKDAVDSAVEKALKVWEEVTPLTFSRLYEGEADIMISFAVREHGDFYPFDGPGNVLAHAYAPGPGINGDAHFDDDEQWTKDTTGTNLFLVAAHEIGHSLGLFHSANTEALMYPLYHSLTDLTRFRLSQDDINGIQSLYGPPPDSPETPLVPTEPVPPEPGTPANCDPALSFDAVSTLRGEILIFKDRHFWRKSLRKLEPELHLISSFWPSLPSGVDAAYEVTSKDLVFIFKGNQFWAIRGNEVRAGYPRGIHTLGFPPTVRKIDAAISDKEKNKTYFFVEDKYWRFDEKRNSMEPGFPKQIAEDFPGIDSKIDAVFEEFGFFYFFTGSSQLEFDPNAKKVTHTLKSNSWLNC
T8 sequence (P14780 107-707): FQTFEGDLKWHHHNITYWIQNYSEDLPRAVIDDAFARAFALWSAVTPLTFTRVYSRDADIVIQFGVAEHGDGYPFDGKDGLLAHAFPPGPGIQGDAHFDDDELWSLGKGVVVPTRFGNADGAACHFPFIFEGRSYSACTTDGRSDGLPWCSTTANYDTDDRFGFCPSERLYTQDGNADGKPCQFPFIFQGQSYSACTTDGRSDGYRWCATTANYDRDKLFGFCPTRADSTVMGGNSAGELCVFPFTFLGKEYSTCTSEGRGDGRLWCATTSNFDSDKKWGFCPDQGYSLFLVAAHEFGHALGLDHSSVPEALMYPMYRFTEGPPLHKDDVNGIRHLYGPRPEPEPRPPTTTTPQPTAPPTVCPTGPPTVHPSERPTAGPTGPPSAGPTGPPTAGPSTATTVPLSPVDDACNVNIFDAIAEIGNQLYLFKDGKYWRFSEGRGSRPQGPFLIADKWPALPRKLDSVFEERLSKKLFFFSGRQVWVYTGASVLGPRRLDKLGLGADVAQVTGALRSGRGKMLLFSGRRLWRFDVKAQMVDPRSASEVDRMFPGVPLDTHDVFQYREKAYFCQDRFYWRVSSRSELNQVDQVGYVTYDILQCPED
T5 sequence (P03956 100-469): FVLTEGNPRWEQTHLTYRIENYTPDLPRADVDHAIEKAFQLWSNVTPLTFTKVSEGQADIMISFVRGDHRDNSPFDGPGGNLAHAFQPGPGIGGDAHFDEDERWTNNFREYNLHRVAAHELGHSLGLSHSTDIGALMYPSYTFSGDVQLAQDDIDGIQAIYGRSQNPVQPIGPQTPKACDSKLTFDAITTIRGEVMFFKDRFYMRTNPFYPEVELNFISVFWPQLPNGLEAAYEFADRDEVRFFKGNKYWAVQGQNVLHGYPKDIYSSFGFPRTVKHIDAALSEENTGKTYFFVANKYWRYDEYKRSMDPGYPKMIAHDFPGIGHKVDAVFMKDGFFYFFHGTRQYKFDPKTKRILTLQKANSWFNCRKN
T2 sequence (P08253 110-660): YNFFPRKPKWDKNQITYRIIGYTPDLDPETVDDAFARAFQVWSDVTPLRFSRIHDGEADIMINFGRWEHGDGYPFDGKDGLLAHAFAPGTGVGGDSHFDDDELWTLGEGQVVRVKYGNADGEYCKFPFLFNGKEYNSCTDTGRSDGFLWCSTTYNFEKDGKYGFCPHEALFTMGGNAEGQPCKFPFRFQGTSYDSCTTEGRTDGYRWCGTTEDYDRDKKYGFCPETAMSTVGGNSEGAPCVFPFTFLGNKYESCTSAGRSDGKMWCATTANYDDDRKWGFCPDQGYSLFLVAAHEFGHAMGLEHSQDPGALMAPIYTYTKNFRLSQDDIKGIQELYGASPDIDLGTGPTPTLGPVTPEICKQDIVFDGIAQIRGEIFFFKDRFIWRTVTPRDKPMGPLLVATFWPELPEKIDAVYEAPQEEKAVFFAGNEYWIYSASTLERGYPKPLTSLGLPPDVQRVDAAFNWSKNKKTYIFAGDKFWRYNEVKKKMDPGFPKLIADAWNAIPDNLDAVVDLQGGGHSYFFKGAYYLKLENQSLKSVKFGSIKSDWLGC

B1: wt ProADAM 10 23-213 (N-terminal His tag) (other)
chain: NPLNKYIRHYEGLSYNVDSLHQKHQRAKRAVSHEDQFLLLDFHAHGRQFNLRMKRDTSLFSDEFKVETSNKVPDYDTSHIYTGHIYGEEGSFSHGSVIDGRFEGFIKTRGGTFYIEPAERYIKDRILPFHSVIYHEDDINYPHKYGPQGGCADHSVFERMRKYQMTGVEEGARAHPEKHAASSGPELLRKK
notes: Expressed in E. coli, purified on Ni-NTA and Superdex-75; the wild type has Cys there; not shown: N-terminal His tag and leader encoded by the pRSET vector (insert at BamHI/EcoRI)
- Ki (MMP 13): > 2000 nM
- Ki (MMP 2): > 2000 nM
- Ki (MMP 3): > 2000 nM
- Ki [1]: > 3000 nM
- Ki (MMP 1): > 2000 nM
- Ki [2]: 75 nM
- Ki (MMP 14): > 2000 nM
- Ki (MMP 9): > 2000 nM
- Ki [3]: > 11000 nM

B2: wt ProADAM 10 23-213 (C-terminal His tag) (other)
chain: NPLNKYIRHYEGLSYNVDSLHQKHQRAKRAVSHEDQFLLLDFHAHGRQFNLRMKRDTSLFSDEFKVETSNKVPDYDTSHIYTGHIYGEEGSFSHGSVIDGRFEGFIKTRGGTFYIEPAERYIKDRILPFHSVIYHEDDINYPHKYGPQGGCADHSVFERMRKYQMTGVEEGARAHPEKHAASSGPELLRKKHHHHHH
notes: the wild type has Cys there
- Ki [4]: > 10000 nM
- Ki [5]: 48 nM
- Ki [6]: > 1000 nM
- Ki [1]: > 10000 nM
- Ki [3]: > 11000 nM
- Ki [7]: ~1000 nM
